Assay results from patent US9687560B2, “Skin-permeating peptide” (LG Household & Health Care Ltd., priority 2012, dated 2017).
Entries after “also recorded” stand apart in the source; their conditions may differ. Primed or numbered codes have the meaning given here. Ends that are not written are not given here. Dansyl′ = dansyl group

Key:
porcine skin [1] = assay: Skin permeability test of skin permeable peptide derivative (Franz glass cell, fluorescence); assay type: in vitro ADME
Description: A dansyl group was linked at the C-terminus of each peptide having any one amino acid sequence of SEQ ID NOs. 1 to 10 which were selected in Example 1 so as to synthesize a derivative thereof, and it was intended to examine skin permeability thereof. In detail, each of the peptides was chemically synthesized, and then a dansyl group was added at the C-terminus of each peptide to synthesize a derivative thereof. As a control group, a peptide composed of the amino acid sequence of “[…] NO. 21)” which was prepared by adding a dansyl group at the C-terminus was used. […] Then, each derivative was added at the same concentration to the top of the cell, followed by incubation for 16 hours. After completion of the incubation, the amount of each derivative in the receiver at the bottom was measured using a victor fluorescence meter (340/520) to compare permeation degree (Table 2),

porcine skin [2] = assay: Skin retention test of skin permeable peptide derivative (fluorescence); assay type: binding; settings: for Fluorescent intensity (340/520), amount of peptide derivative remaining in porcine skin: 10 minutes incubation with skin, washed ten times; for Level of peptide derivative remaining in the skin (in words): compared to control group / among the 10 peptides
Description: To examine skin binding affinity of the derivatives synthesized in Example 3, the porcine skin was reacted with each of the derivatives, and the amount of the peptide dissolved in the surface was measured. In detail, the porcine skin was cut and put in a 1.5 ml tube, and 500 μl of TBS (1% BSA) was added thereto. […] After incubation, washing was performed using TBS (1% BSA) at 12,000 RPM for 1 minute ten times, and the porcine skin in which the reaction was completed was transferred to a 24-well plate. The amount of the peptide remaining on the surface was measured using a victor fluorescence meter (340/520) and compared (Table 4).

porcine skin [3] = assay: Skin retention test of phage including skin permeable peptide (anti-M13 antibody-HRP, absorbance); assay type: binding; settings: compared to control group / among the 10 peptides
Description: Skin permeation mainly occurs by the mechanism of a diffusion of a substance dissolved in the components of the skin from the outermost layer to the innermost layers. Through this mechanism, an active ingredient can be effectively delivered throughout the skin. The skin surface is composed of corneocytes and intercellular materials. […] In this case, the product first binds to the skin, and then diffuses into the inner layer. Therefore, binding affinity of the selected phages to the skin was measured to examine the superiority of the peptides.
To measure the amount of the phage binding to the porcine skin, anti-M13 antibody-HRP conjugate was used. […] The porcine skin thus cut was put in a 1.5 ml tube, and 500 μl of TBS (1% BSA) was added thereto. […] Thereafter, they were washed using 1% BSA-containing TBS solution at 12,000 RPM for 1 minute 10 times. Subsequently, 500 μl of TBS solution containing anti-M13 antibody-HRP (Horseradish peroxidase) conjugate-containing 1% BSA was added, followed by incubation for 5 minutes. TBS solution containing 1% BSA was added to the culture, followed by washing at 12,000 RPM for 1 minute 10 times. The residual buffer was completely removed, and TMB solution (Tetramethylbenzidine solution, Amersham) was further added. […] Then, absorbance (450 nm) was measured to determine binding affinity between phage-skin.

Skin binding affinity / skin retention of phage (in words) (porcine skin [3])	Substance	Fluorescence intensity (340/520), amount of porcine skin-permeating peptide derivative (porcine skin [1])	Skin permeability of peptide derivative (in words) (porcine skin [1])	Fluorescent intensity (340/520), amount of peptide derivative remaining in porcine skin (porcine skin [2])	Level of peptide derivative remaining in the skin (in words) (porcine skin [2])
–	S3-1 peptide derivative: peptide NQTDHLFSTFIS (SEQ ID NO. 1) with a dansyl group added at the C-terminus (NQTDHLFSTFIS-{Dansyl′})	42000	relatively excellent skin permeability	143000	relatively high level
highest skin binding affinity	S3-2 peptide derivative: peptide NGSLNTHLAPIL (SEQ ID NO. 2) with a dansyl group added at the C-terminus (NGSLNTHLAPIL-{Dansyl′})	70000	–	260000	relatively high level; also recorded: highest level
–	S3-3 peptide derivative: peptide GGSIAASELEYY (SEQ ID NO. 3) with a dansyl group added at the C-terminus (GGSIAASELEYY-{Dansyl′})	19000	relatively excellent skin permeability	47000	–
–	S3-7 peptide derivative: peptide ELKQVVISDINH (SEQ ID NO. 4) with a dansyl group added at the C-terminus (ELKQVVISDINH-{Dansyl′})	25000	relatively excellent skin permeability	98000	relatively high level
–	S3-8 peptide derivative: peptide MVRDHPGLSGWT (SEQ ID NO. 5) with a dansyl group added at the C-terminus (MVRDHPGLSGWT-{Dansyl′})	22000	relatively excellent skin permeability	100000	relatively high level
–	S3-9 peptide derivative: peptide TSGISINKLPHT (SEQ ID NO. 6) with a dansyl group added at the C-terminus (TSGISINKLPHT-{Dansyl′})	18000	relatively excellent skin permeability	47000	–
–	S4-4 peptide derivative: peptide IFAALDYNLGRH (SEQ ID NO. 7) with a dansyl group added at the C-terminus (IFAALDYNLGRH-{Dansyl′})	4400	–	13200	–
–	S4-7 peptide derivative: peptide DMKWTLKEWMTH (SEQ ID NO. 8) with a dansyl group added at the C-terminus (DMKWTLKEWMTH-{Dansyl′})	8600	–	37600	–
–	S4-9 peptide derivative: peptide QIEKHVYFNASQ (SEQ ID NO. 9) with a dansyl group added at the C-terminus (QIEKHVYFNASQ-{Dansyl′})	16000	relatively excellent skin permeability	56000	–
–	S4-10 peptide derivative: peptide TNIPSLSGILMK (SEQ ID NO. 10) with a dansyl group added at the C-terminus (TNIPSLSGILMK-{Dansyl′})	9000	–	25000	–
